Experimental data reported in PMC6028548.

Assays:
[1] = target: GMP-CPP–stabilized microtubules and dynamic microtubules grown from GMP-CPP seeds (TIRF assays) (UniProt P02550); assay: single-molecule TIRF microscopy; rhodamine-labeled GMP-CPP microtubules held on the glass by anti–β-tubulin antibodies; 1–10 nM motor in BRB80 with 1 mM ATP, 0.5 mg/ml casein, oxygen scavengers; 37°C
[2] = target: Kif18b-GFP-His (full-length Kif18-GFP-6×His) (human); assay: single-molecule photobleaching (TIRF microscopy); Kif18b-GFP motors moving on GMP-CPP–stabilized microtubules; bleaching steps and intensities of GFP
[3] = target: Kif18b-GFP-His (full-length Kif18-GFP-6×His) (human); assay: SEC-MALS; Superdex 200 10/300 GL, MiniDAWN detector; Kif18b-GFP-His at 0.3 mg/ml in gel filtration buffer (25 mM Hepes, pH 7.5, 150 mM NaCl, 300 mM KCl, 5 mM β-mercaptoethanol, 1 mM MgCl2, 1 mM Na-EGTA, 1 mM ATP)
Kif18b_(500–593) (human) = assay: SEC-MALS; Superdex 200 10/300 GL, MiniDAWN detector; protein at 2 mg/ml

dwell time at the microtubule plus end [1] | stoichiometry N [2] | stoichiometry N [3] | stoichiometry N (Kif18b_(500–593) (human)) | Substance
22.8 s | 2 | 2 |  | Kif18b-GFP-His (full-length Kif18-GFP-6×His) (natural protein)
 |  |  | 2 | Kif18b_(500–593) (domain or fragment)
8.5 s |  |  |  | Kif18bΔC-GFP-His (domain or fragment)
